Data set [1] deals with PEG-T48-Q.
Data set [2] has as its system PEG-T58-Q.
The subject of data set [3] is PEG-T2-Q.
Data set [4] relates to PEG-T38-Q.
In data set [5] the test system is PEG-T51-Q.
Data set [6] has as its system PEG-T43-Q.
Data set [7] deals with PEG-T56-Q.
Data set [8] relates to PEG-T1-Q.
The test system of data set [9] is PEG-T3-Q.
The subject of data set [10] is PEG-T7-Q.
Data set [11] relates to PEG-T24-Q.
Data set [12] relates to PEG-T54-Q.
In data set [13] the test system is SB14.
The test system of data set [14] is T1, PB2.
T1 sequence: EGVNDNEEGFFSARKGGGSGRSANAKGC

Data set [15] relates to T2, PEG-T39-Q.
T2 sequence: GGGSGRSANAKGKGC

Chain of MMP9 (chain, as listed by the source): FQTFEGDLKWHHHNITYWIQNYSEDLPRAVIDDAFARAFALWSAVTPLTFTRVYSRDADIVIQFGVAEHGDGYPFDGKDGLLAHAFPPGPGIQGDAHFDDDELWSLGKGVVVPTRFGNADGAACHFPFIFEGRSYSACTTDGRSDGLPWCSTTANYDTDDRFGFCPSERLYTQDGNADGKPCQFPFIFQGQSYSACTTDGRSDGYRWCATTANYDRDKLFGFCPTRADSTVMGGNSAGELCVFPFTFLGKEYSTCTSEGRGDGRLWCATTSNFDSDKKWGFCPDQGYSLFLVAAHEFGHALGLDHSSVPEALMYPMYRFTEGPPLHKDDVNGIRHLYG
Chain of HPN (chain, as listed by the source): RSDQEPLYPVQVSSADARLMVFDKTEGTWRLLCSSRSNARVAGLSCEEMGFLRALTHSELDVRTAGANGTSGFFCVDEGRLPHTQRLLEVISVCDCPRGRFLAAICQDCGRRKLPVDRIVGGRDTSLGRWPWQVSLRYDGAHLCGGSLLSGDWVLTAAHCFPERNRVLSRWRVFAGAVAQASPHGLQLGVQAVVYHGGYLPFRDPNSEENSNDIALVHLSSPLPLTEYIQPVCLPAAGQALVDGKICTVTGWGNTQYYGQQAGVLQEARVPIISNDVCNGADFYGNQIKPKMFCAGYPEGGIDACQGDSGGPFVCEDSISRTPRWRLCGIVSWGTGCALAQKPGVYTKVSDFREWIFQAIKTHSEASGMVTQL
Chain of MMP3 (chain, as listed by the source): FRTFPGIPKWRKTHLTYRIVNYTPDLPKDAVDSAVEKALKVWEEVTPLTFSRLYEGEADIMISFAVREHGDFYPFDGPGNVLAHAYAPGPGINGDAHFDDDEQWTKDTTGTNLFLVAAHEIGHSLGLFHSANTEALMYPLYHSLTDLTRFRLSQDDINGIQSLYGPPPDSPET
Chain of MMP10 (chain, as listed by the source): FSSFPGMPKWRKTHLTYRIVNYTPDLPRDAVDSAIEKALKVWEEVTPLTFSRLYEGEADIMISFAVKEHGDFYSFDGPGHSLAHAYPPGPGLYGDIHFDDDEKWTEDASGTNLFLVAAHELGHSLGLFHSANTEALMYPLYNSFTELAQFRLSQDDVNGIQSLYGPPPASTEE

HPN: the “Top hit (cleavage of PEG-coupled FRET substrate by recombinant proteases)” value (“Top hit” for short) in data set [1] and in [2] was “HPN” each time.

Consider KLK2, for which the “Top hit” value in data set [3] and in data set [4] was “KLK2” in each case. The “Second hit (cleavage of PEG-coupled FRET substrate by recombinant proteases)” value (“Second hit” below) in data set [1] is recorded as “KLK2”.

As to KLK3, the “Second hit” value in [3] and in [5] was “KLK3” throughout.

Turning to MMP3, the “Top hit” value in data set [6] is given as “MMP3”. The “Second hit” value in data set [7] was “MMP3”.

Consider MMP9, for which the “Top hit” value in data set [8], in data set [9] and in data set [10] was “MMP9” throughout.

MMP10: the “Top hit” value in data set [7] is recorded as “MMP10”.

Take MMP13: in [11], the “Top hit” value is listed as “MMP13”; the substrate cleavage entry is “selectively cleaved by MMP13 and uPA”; the “substrate cleavage in vitro” value is “in vitro, these substrates are cleaved by proteases overexpressed in PC3 cells, MMP13 and uPA”. Further, the “Second hit” value in data set [12] was “MMP13”. Also, the substrate cleavage assay entry in [13] is recorded as “MMP13 substrate, expressed by PC3”.

Consider uPA, for which, in data set [14], the substrate cleavage assay entry is “uPA substrate, expressed by PC3”. In data set [15], the “Top hit” value was “uPA”; the substrate cleavage entry was “selectively cleaved by MMP13 and uPA”; the “substrate cleavage in vitro” value is “in vitro, these substrates are cleaved by proteases overexpressed in PC3 cells, MMP13 and uPA”.
